Experimental data from patent publication US20140234868A1, “USE FOR GLYCOLIPOPROTEIN GINTONIN, ISOLATED AND IDENTIFIED FROM GINSENG, AS A NATURAL MEDICAL-PLANT DERIVED LIGAND” (KONKUK UNIVERSITY INDUSTRIAL COOPERATION CORP., priority 2011, published 2014).

Tests used:
LPA6 receptor = biological target: T1, LPA6 receptor (Homo sapiens, UniProt P43657); assay: Intracellular cAMP level in LPA6-expressing B103 cells; type: cell-based
T1 construct: host or cells: B103 rat neuroblastoma cells
T1 sequence (P43657 1-344): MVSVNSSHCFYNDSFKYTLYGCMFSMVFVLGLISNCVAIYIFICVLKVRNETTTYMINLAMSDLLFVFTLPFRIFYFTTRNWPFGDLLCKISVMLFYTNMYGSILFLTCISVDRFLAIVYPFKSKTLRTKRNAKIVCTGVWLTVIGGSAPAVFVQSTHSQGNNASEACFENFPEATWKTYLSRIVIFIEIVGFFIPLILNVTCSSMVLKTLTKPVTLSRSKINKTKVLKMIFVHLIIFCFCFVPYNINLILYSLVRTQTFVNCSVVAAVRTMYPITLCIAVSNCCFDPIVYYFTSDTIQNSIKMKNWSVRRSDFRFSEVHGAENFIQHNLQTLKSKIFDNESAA
Text: After treatment with gintonin, B103 cells expressing LPA3 or LPA6 receptor were examined for change in intracellular cAMP level.

mice = assay: Passive avoidance test, scopolamine-caused long-term memory impairment; type: in vivo, mouse
Protocol: ICR male mice (25-28 g), purchased from Oriental Bio (Seoul, Korea), were bred according to the guideline of the Institutional Animal Care and Use Committee of Konkuk University, and subjected to passive avoidance test to examine memory maintenance impairment and the protection of gintonin against memory impairment according to the method of Yang et al. (Yang et al., Biol Pharm Bull 32, 1710-1715, 2009).
A passive avoidance test was performed in a training chamber which was divided into two compartments (20×20×20 cm in size, each) separated by an automatically moving guillotine door (5×5 cm): one compartment was lighted while the other remained dark where metal rods installed in a lattice pattern on the bottom so as to deliver an electrical foot shock (Gemini Avoidance System, San Diego, USA).
For an acquisition trial, a mouse was first placed in the lighted compartment, facing away from the dark compartment and allowed to explore for 10 sec. After 10 sec, the guillotine door was opened and the mouse was allowed to explore freely. When the mouse entered the dark compartment with all four paws according to its habit, the guillotine door was closed, and a footshock (0.5 mA, 3 sec duration) was delivered. The latency time to enter the dark compartment was recorded (from the time the door was lifted). 120 min before experimentation, gintonin (25, 50, 100 mg/kg, p.o) was administered while tacrine (10 mg/kg, p.o) was used as a positive control. Memory impairment was induced by injecting scopolamine (0.9 mg/kg, i.p.) 30 min after gintonin or tacrine administration (Araujo et al., Prog Neuropsycopharmcol Biol Psychiatry 29, 411-422, 2005). For a negative control, a physiological saline was used.
24 Hours after the learning session, an experiment was performed without injecting gintonin. The mouse was positioned again in the lighted compartment. After 10 sec of acclimation, the latency time to enter the dark compartment was recorded (from the time the door was lifted).

rat adrenal gland = assay: Catecholamine secretion from perfused rat adrenal gland
Protocol: Male rats (Sprague-Dawley, each weighing 200 to 300 g) was anesthetized by an to intraperitoneal injection of thiopental sodium (50 mg/kgm), and the adrenal gland was excised from the rats according to the method of Wakade and Woo et al. (Wakade, J Physiol. 313, 463-480, 1981; Woo et al., Korean J Physiol Pharmacol., 12, 155-164, 2008).
Briefly, a cannula was inserted so as to perfuse the adrenal gland, as illustrated in FIG. 18. During the cannula insertion, heparin (400 IU/ml) was infused into the vena cava in order to prevent blood coagulation. Then, the adrenal gland was isolated from the body, and transferred to a leucite chamber which was kept at 37±1° C.
The adrenal gland was perfused at a rate of 0.33 ml/min with the aid of a peristaltic pump (ISCO® pump, WIZ Co. U.S.A.). The perfusion solution was a Krebs-bicarbonate solution: (mM) NaCl, 118.4; KCl, 4.7; CaCl2, 2.5; MgCl2, 1.18; NaHCO3, 25; KH2PO4, 1.2; glucose, 11.7.
The perfusion solution was continuously aerated with 95% O2+5% CO2 gas, and was maintained to have pH 7.4-7.5. In addition, the perfusion solution was supplemented with EDTA ([…]) and ascorbic acid ([…]) to prevent the oxidation of catecholamines (Woo et al., Korean J Physiol Pharmacol., 12, 155-164, 2008).
Gintonin (1˜10 μg/ml) or cyclopiazonic acid (10 μM) was applied by perfusion for 4 min while acetylcholine (5.32 mM) was infused at a dose of 50 μl using a three-way stopcock.
Prior to treatment with a material stimulating catecholamine secretion, the adrenal gland was left until the secretion of catecholamine in the absence of stimuli reached a constant level, that is, a background or basal level, which typically took 5˜10 min. Then, the adrenal gland was perfused with gintonin or other drugs, and perfusates effluent from the adrenal gland were collected at regular intervals of 4 min, and the amount of catecholamines released by drug stimulation was calculated by subtracting the background or basal level from measurements (Woo et al., Korean J Physiol Pharmacol., 12, 155-164, 2008).
In order to examine the effect of gintonin on the spontaneous secretion of catecholamine and on the stimulus-induced secretion of catecholamine, the adrenal gland was perfused with a Krebs solution containing gintonin alone or in combination with other drugs, after which the perfusates were collected until the amount of secreted catecholamine reached the background level. The collected adrenal perfusates were stored in tubes maintained at 4° C.
Catecholamine in the perfusates was quantified using a fluorospectrophotometer (Kontron Co., Milano, Italy) according to the methods of Anton and Sayre, and Lim. In this regard, each perfusate amounted to 0.2 ml (Woo et al., Korean J Physiol Pharmacol., 12, 155-164, 2008).

HUVECs = assay: Tubular formation of HUVECs on Matrigel; type: cell-based, human; details: gintonin 30 μg/ml, 4 hrs
Protocol: To examine the effect of gintonin on angiogenesis, formation of vascular tube-like structures on Matrigel was compared between the control and the gintonin-treated group (Kim et al. Biol Pharm Bull 30: 1674-1679).
Briefly, cells were incubated for 6 hrs in M199 (1% FBS). After trypsinization, the cells were suspended in M199 (1% FBS), and seeded (2×10^5 cells/well) to 24-well plates coated with Matrigel (250 μl/well).
The cells were incubated at 37° C. for 4 hrs in M199 (1% FBS) containing gintonin (30 μg/ml), and observed for tubular formation by inverted fluorescence microscopy (AxioVert200, Carl Zeiss).

endogenous CaCC = details: Xenopus oocytes; Pyo et al. 2011; cited from earlier work
[1] = system: mouse EAT (Ehrlich Ascites Tumor); details: mouse EAT cells; PLC-coupled pathway; cited from earlier work

B1: gintonin: ginseng-derived glycolipoprotein; structural protein of ginseng major latex-like protein (MLP151) and ribonuclease-like storage proteins; crude gintonin used in tests (protein)
chain 1: MGLTGKLICQTGIKSDGDVFHELFGTRPHHVPNITPANIQGCDLHEGEFGKVGSVVIWNYSIDGNAMIAKEEIVAIDEEDKSVTFKVVEGHLFEEFKSIVFSVHVDTKGEDNLVTWSIDYEKLNESVKDPTSYLDFLLSVTRDIEAHHLPK
chain 2: RSDYPWAMFALRLQWPAGFCEVNNACDTKSLLNTFTIHGLYPYNAKGTPALYCDGTAFDVNSVSDFLAEMHLAWPSHETNTEDIQFWEHEWKKHGRCSEALLKQTDYFRTALAFRKAFDIVGLLNQEGIYPNNDLYRPKMIKEAIKKHLNAVPEIDFTKNENSEYVLTDINVCVNQQATRFVDCPTDDATDDYRLKFVRLPSKMKFADPRTNSII
LPA6 receptor
  change in intracellular cAMP level: no influences on intracellular cAMP level
mice; gintonin 25 mg/kg p.o. + scopolamine 0.9 mg/kg i.p.
  latency time: 78.24 ± 7.83 s
mice; gintonin 50 mg/kg p.o. + scopolamine 0.9 mg/kg i.p.
  latency time: 169.22 ± 12.97 s
mice; gintonin 100 mg/kg p.o. + scopolamine 0.9 mg/kg i.p.
  latency time: 183.43 ± 10.89 s
Rat adrenal gland; gintonin 1 μg/ml, pre-treatment with 5.32 mM acetylcholine
  catecholamine secretion after acetylcholine: incapacitated the effect
Rat adrenal gland; gintonin 3 μg/ml, 5.32 mM acetylcholine
  catecholamine secretion after acetylcholine: continually promote the secretion of catechlamine
Rat adrenal gland; gintonin 10 μg/ml, 5.32 mM acetylcholine
  catecholamine secretion after acetylcholine: stimulates the secretion of catecholamine in the early stage, but could not induce the secretion since then
Rat adrenal gland; gintonin 1~10 μg/ml, perfusion at 15-min intervals
  catecholamine secretion: continually secrete catecholamine in a dose-dependent manner
HUVECs
  tubular formation: promoted tubular formation
Endogenous CaCC
  CaCC activation: activate endogenous Ca^2+-activated channel (CaCC)
[1]
  transient increase in cytoplasmic free Ca2+ level: induces a transient increase in cytoplasmic free Ca^2+ level
